B1: Pegcrisantaspase: mPEG-r-crisantaspase conjugate: Erwinia chrysanthemi L-asparaginase conjugated to polyethylene glycol, prepared as set forth in U.S. Pat. No. 9,920,311 (conjugate, UniProt P06608 22-348, looked up)
L-asparaginase: ADKLPNIVILATGGTIAGSAATGTQTTGYKAGALGVDTLINAVPEVKKLANVKGEQFSNMASENMTGDVVLKLSQRVNELLARDDVDGVVITHGTDTVEESAYFLHLTVKSDKPVVFVAAMRPATAISADGPMNLLEAVRVAGDKQSRGRGVMVVLNDRIGSARYITKTNASTLDTFKANEEGYLGVIIGNRIYYQNRIDKLHTTRSVFDVRGLTSLPKVDILYGYQDDPEYLYDAAIQHGVKGIVYAGMGAGSVSVRGIAGMRKAMEKGVVVIRSTRTGNGIVPPDEELPGLVSDSLNPAHARILLMLALTRTSDPKVIQEYFHTY
modifications: mPEG conjugate
B2: Erwinia L-asparaginase: L-asparaginase protein from Erwinia chrysanthemi, named crisantaspase, marketed as Erwinase (protein, UniProt P06608 22-348, looked up)
L-asparaginase: ADKLPNIVILATGGTIAGSAATGTQTTGYKAGALGVDTLINAVPEVKKLANVKGEQFSNMASENMTGDVVLKLSQRVNELLARDDVDGVVITHGTDTVEESAYFLHLTVKSDKPVVFVAAMRPATAISADGPMNLLEAVRVAGDKQSRGRGVMVVLNDRIGSARYITKTNASTLDTFKANEEGYLGVIIGNRIYYQNRIDKLHTTRSVFDVRGLTSLPKVDILYGYQDDPEYLYDAAIQHGVKGIVYAGMGAGSVSVRGIAGMRKAMEKGVVVIRSTRTGNGIVPPDEELPGLVSDSLNPAHARILLMLALTRTSDPKVIQEYFHTY
B3: Oncaspar: E. coli L-asparaginase modified at multiple lysine residues using 5 kDa mPEG-succinimidyl succinate (conjugate, UniProt P00805 23-348, looked up)
L-asparaginase 2: LPNITILATGGTIAGGGDSATKSNYTVGKVGVENLVNAVPQLKDIANVKGEQVVNIGSQDMNDNVWLTLAKKINTDCDKTDGFVITHGTDTMEETAYFLDLTVKCDKPVVMVGAMRPSTSMSADGPFNLYNAVVTAADKASANRGVLVVMNDTVLDGRDVTKTNTTDVATFKSVNYGPLGYIHNGKIDYQRTPARKHTSDTPFDVSKLNELPKVGIVYNYANASDLPAKALVDAGYDGIVSAGVGNGNLYKSVFDTLATAAKTGTAVVRSSRVPTGATTQDAEVDDAKYGFVASGTLNPQKARVLLQLALTQTKDPQQIQQIFNQY
modifications: 5 kDa mPEG-succinimidyl succinate on lysines
notes: E. coli L-asparaginase modified at multiple lysine residues using 5 kDa mPEG-succinimidyl succinate

Experiments:
U-87-MG = test: Oncolines cell proliferation assay (ATP luminescence); format: cell-based; settings: glioblastoma, brain
Procedure: (§1) Cell preparation. All cell lines have been licensed from the American Type Culture Collection (ATCC) Manassas, Va. (US). Master and Working Cell banks (MCB and WCB) were prepared by subculturing in ATCC-recommended media and freezing according to ATCC recommended protocols (www.atcc.org).
(§2) Compound preparation. Test compounds were prepared as stock solutions in DMSO or aqueous buffers as appropriate and serially diluted to obtain a dilution series.
(§3) Cell proliferation assay. Cell proliferation was assessed using a commercially available luminescence assay using ATP as the endpoint.
(§4) Controls. t=0 signal. On a parallel plate, 45 μl cells were dispensed and incubated in a humidified atmosphere of 5% CO2 at 37° C. After 24 hours 5 μl DMSO-containing Hepes buffer and 25 μl ATPlite 1Step™ solution were mixed, and luminescence measured after 10 minute incubation (=luminescencet=0).
(§5) Reference compound. The IC50 of the reference compound doxorubicin is measured on a separate plate. The IC50 is trended. If the IC50 is out of specification (0.32-3.16 times deviating from historic average) the assay is invalidated.
(§6) Cell growth control. The cellular doubling times of all cell lines are calculated from the t=0 hours and t=end growth signals of the untreated cells. If the doubling time is out of specification (0.5-2.0 times deviating from historic average) the assay is invalidated.
(§7) Maximum signals. For each cell line, the maximum luminescence was recorded after incubation until t=end without compound in the presence of 0.4% DMSO (=luminescenceuntreated,t=end).
(§8) IC50 were calculated by non-linear regression using IDBS XLfit. The percentage growth after incubation until t=end (%-growth) was calculated as follows: 100%×(luminescencet=end/luminescenceuntreated,t=end). This was fitted to the ^10log compound concentration (conc) by a 4-parameter logistics curve: %-growth=bottom+(top−bottom)/(1+10^(logIC50-conc)*hill)) where hill is the Hill-coefficient, and bottom and top the asymptotic minimum and maximum cell growth that the compound allows in that assay.
(§9) NCI60 parameters. The LD50, the concentration at which 50% of cells die, is the concentration where luminescencet=end=½×luminescencet=0h. […] This is concentration associated with the signal: ((luminescenceuntreated,t=end−luminescencet=0)/2)+luminescencet=0.
(§10) Curve fitting. […] The hill was fixed on −6 when the software calculated a lower value. […] Incidentally, when technical failures were likely, concentration points were knocked out.
(§11) The special volcano plot of FIG. 9 relates compound sensitivity (as measured by ^10logIC50) to the presence of cancer hotspot mutations. […] The hotspot mutations were derived from statistical analyses of the recurrence patterns of mutations and copy number alterations in patients through separate studies. Axes and statistical analyses are identical to the volcano plot of FIG. 8. The cutoff p-level for significance is 0.32. […] Effect20 For determination of the effect of the compound on the activity of other anti-cancer agents in SynergyScreen™ experiments, a low, fixed concentration is used, corresponding to the concentration at which cell growth is inhibited by 20%.

HT-1080 = test: as above; format: cell-based; settings: HT-1080, fibrosarcoma
Procedure: as §1, §2, §3, §4, §5, §6, §7, §8, §9, §10, §11

RL = test: as above; format: cell-based; settings: non-Hodgkin's lymphoma, B lymphoblast
Procedure: as §1, §2, §3, §4, §5, §6, §7, §8, §9, §10, §11

MV-4-11 = test: as above; format: cell-based; settings: MV-4-11, biphenotypic B myelomonocytic leukemia
Procedure: as §1, §2, §3, §4, §5, §6, §7, §8, §9, §10, §11

KG-1 = test: as above; format: cell-based; settings: KG-1, acute myelogenous leukemia (AML)
Procedure: as §1, §2, §3, §4, §5, §6, §7, §8, §9, §10, §11

THP-1 = test: as above; format: cell-based; settings: THP-1, acute monocytic leukemia
Procedure: as §1, §2, §3, §4, §5, §6, §7, §8, §9, §10, §11

HL-60 = test: as above; format: cell-based; settings: HL-60, acute promyelocytic leukemia
Procedure: as §1, §2, §3, §4, §5, §6, §7, §8, §9, §10, §11

MOLT-4 = test: as above; format: cell-based; settings: MOLT-4, acute lymphoblastic leukemia (ALL)
Procedure: as §1, §2, §3, §4, §5, §6, §7, §8, §9, §10, §11

HT = test: as above; format: cell-based; settings: diffuse mixed lymphoma, B lymphoblast
Procedure: as §1, §2, §3, §4, §5, §6, §7, §8, §9, §10, §11

DB = test: as above; format: cell-based; settings: large cell lymphoma, B lymphoblast
Procedure: as §1, §2, §3, §4, §5, §6, §7, §8, §9, §10, §11

[1] = In vivo test of mPEG-r-crisantaspase with cytarabine and daunorubicin (tolerability, body weight); settings: mice; PegC 5 & 50 IU/kg as single agent and with cytarabine 50 mg/kg and daunorubicin 1 mg/kg
HL-60 cell line = test: Combination (synergy) cell proliferation assay with pegcrisantaspase; format: cell-based
Procedure: Plate preparation. The stocks of the mixtures and single agents were diluted in DMSO or 0.9% sodium chloride to generate a 7-points dose-response series. After further 31.6 times dilution in 20 mM sterile Hepes buffer pH 7.4 (reference compounds) or medium (pegcrisantaspase), 5 μl of pegcrisantaspase solution, and 5 μl of reference compound was added to 40 μl pre-plated cells in duplicate in a 384-well assay plate. The final DMSO concentration during incubation was 0.4% in all wells.
Cell proliferation assay. A cell assay stock was thawed and diluted in appropriate medium and dispensed in a 384-well plate, depending on the cell line used, at a concentration of 800-3200 cells per well in […]: i.e., DB: 800 cells per well; RL: 1000 cells per well; MV-4-11: 1600 cells per well; KG-1, HL-60 and HT 3200 cells per well. For each used cell line the cell density was optimized previously. The margins of the plate were filled with phosphate-buffered saline. Plated cells were incubated in a humidified atmosphere of 5% CO2 at 37° C. After 24 hours, 5 μl of pegcrisantaspase solution, and 5 μl of reference compound was added, and plates were further incubated for another 72 hours. After 72 hours, plates were cooled in 30 minutes to room temperature and 25 μl of ATPlite 1Step™ (PerkinElmer) solution was added to each well, and subsequently shaken for 2 minutes. After 5 minutes of incubation in the dark at room temperature, the luminescence was recorded on an Envision multimode reader (PerkinElmer).
Controls: t=0 signal. On a parallel plate, 40 μl cells were dispensed in quadruplicate and incubated in a humidified atmosphere of 5% CO2 at 37° C. After 24 hours, plates were cooled to room temperature in 30 minutes. 5 μl DMSO-containing Hepes buffer, 5 μl 0.9% sodium chloride-containing medium and 25 μl ATPlite 1Step™ solution were added and subsequently mixed for 2 minutes. Luminescence was measured after 10 minute incubation (=luminescencet=0) in the dark.
as §6
Maximum signals. On each 384-well plate, the maximum luminescence was recorded after incubation for 72 hours without compound in the presence of 0.4% DMSO. All equivalent wells (usually 14) were averaged. This average is defined as: luminescenceuntreated,t=72h. Dose response curves. Accurate single agent IC50s are needed for combination analysis. For each single agent its dose-response signal was fitted by a 4-parameter logistics curve using XL-fit 5 (IDBS software):
luminescence=bottom+(top-bottom)/(1+10^(logIC50−log[cpd])−hill))
[cpd] is the compound concentration tested. hill is the Hill-coefficient. Bottom and top are the asymptotic minimum and maximum of the curve. Combination Index (CI) determination. The CI is one of the most widely used quantitative indications of synergy. The CI evaluates the concentrations needed to achieve a fixed-effect. A CI of below 1 indicates synergy.
CI is defined for a certain percentage cell viability (V), which is the signal related to a non-exposed control: V=100%×luminescencetreated,t=72h/luminescenceuntreated,t=72h. The concentrations of the two compounds cpd1 and cpd2 needed to reach a certain percentage cell viability V in combination are then compared to the concentrations needed as single agents:
IC50,cpd1 would signify the IC50 of cpd1 alone. The CI is labelled by %-effect, to follow conventions, so CI75 signifies the CI at 25% viability Curve shift analysis. This analysis provides a visual confirmation of synergy^1. The concentrations of the mixtures of compounds 1 and 2 (cpd1 and cpd2), and the single agents, were expressed in terms of IC50 equivalents (in ‘units’ of IC50):
The dose-response signal was fitted by a 4-parameter logistics curve using XL-fit 5 (IDBS software)

[2] = in vivo; cited from earlier work
[3] = children who received the drug; cited from earlier work
[4] = PEGylated enzyme relative to unmodified enzyme; cited from earlier work
[5] = pegcrisantaspase with ABT-747, average Combination Index of the mixtures at ED50, HL-60

Molecule | Effect20 (concentration at which cell growth is inhibited by 20%) (U-87-MG) | Effect20 (concentration at which cell growth is inhibited by 20%) (HT-1080) | Effect20 (concentration at which cell growth is inhibited by 20%) (RL) | Effect20 (concentration at which cell growth is inhibited by 20%) (MV-4-11) | Effect20 (concentration at which cell growth is inhibited by 20%) (KG-1) | Effect20 (concentration at which cell growth is inhibited by 20%) (THP-1) | Effect20 (concentration at which cell growth is inhibited by 20%) (HL-60) | Effect20 (concentration at which cell growth is inhibited by 20%) (MOLT-4) | Effect20 (concentration at which cell growth is inhibited by 20%) (HT) | Effect20 (concentration at which cell growth is inhibited by 20%) (DB) | tolerability [1] | Curve shift (HL-60 cell line; pegcrisantaspase with ABT-747, HL-60, leftward shift indicates synergy) | Average CI value 1:1, 1:2 and 2:1 (HL-60 cell line; [5]) | Average CI value 1:1, 1:5 and 5:1 (HL-60 cell line; [5]) | Average CI value 1:1, 1:10 and 10:1 (HL-60 cell line; [5]) | IC50 (IU/mL) (HL-60 cell line; single agent, HL-60, 72 hours) | maximal effect (HL-60 cell line; single agents, dose-response curves of FIG. 3, HL-60) | patients antibody-positive [2] | children who had an allergic reaction [3] | in vitro activity compared to the unmodified L-asparaginase [4]
B1 | 0.057 IU/mL | 0.013 IU/mL | 0.037 IU/mL | 0.0088 IU/mL | 0.00018 IU/mL | 0.012 IU/mL | 0.00028 IU/mL | 0.00019 IU/mL | 0.033 IU/mL | 0.059 IU/mL | well tolerated | yes | 0.26 | 0.29 | 0.33 | 0.070 IU/mL | 88% |  |  | 
B2 |  |  |  |  |  |  |  |  |  |  |  |  |  |  |  |  |  | 30-50% |  | 
B3 | 0.4 IU/mL | 0.00025 IU/mL | 0.37 IU/mL | 0.26 IU/mL | 0.0001 IU/mL | 0.31 IU/mL | 0.0003 IU/mL | 0.00019 IU/mL | 0.28 IU/mL | 0.47 IU/mL |  |  |  |  |  |  |  |  | 30-41% | approximately 50%
